Molecular target: T1, human interleukin-18 (human, UniProt Q14116 37-193)
T1 construct: Immobilised on plates in the ELISAs; also called human IL-18; IL-18
T1 sequence (looked up): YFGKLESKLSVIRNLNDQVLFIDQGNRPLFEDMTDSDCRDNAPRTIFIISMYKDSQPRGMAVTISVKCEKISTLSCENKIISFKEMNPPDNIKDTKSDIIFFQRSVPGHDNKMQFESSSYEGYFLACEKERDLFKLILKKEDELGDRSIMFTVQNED
Experiment: phage ELISA, scFv-presenting phage on immobilised human IL-18 (HSA as comparison), anti-M13 detection, A405
Protocol: ELISA for screening separated clones was carried out by immobilizing human IL-18 on an ELISA plate. Specifically, 2 μg/ml of human IL-18 and 2.5 μg/ml of human serum albumin (HSA) were put in a 40 μL/well ELISA plate (Nunc), allowed to stand for 16 hours at 4° C., and then immobilized on the plate. For blocking, 400 μL/well of PBS solution containing 0.5% BSA, 0.5% gelatin, and 5% skim milk was put in the ELISA plate, and then allowed to stand for 2 hours at 4° C.
Next, into the ELISA plate, 40 μL/well of sample solution containing an scFV-presenting phage was poured, and the mixture was allowed to react. Thereafter, the sample solution was removed, and the product was washed 5 times by using a cleaning liquid. Subsequently, to the immobilized scFv phage, a biotin-labeled anti-M13 monoclonal antibody (Pharmacia biotech) was added, and the mixture was allowed to react with an alkaline phosphatase (AP)-labeled anti-mouse IgG antibody serving as a secondary antibody. The reaction liquid was washed 5 times by using a cleaning liquid.

- binding result: binds
B1: human anti-human IL-18 scFv fragment h18-108 (scFv, V domains shown)
VH: QVQLVQSGAEVRRPGASVRVSCKASGYTFTSHYIHWVRQAPGQGLEWVAIINPSDGRTDYAQKFQGRVTVTRDTSASSVYMGISSLRSEDTAMYYCARTARGFSYATDWGQGTLVTVSS
VL: SYELTQPPSVSVSPGQTARITCSGDALPKKYAYWYQQKPGQAPVLVIYKDSERPSGIPERFSGSSSGTTVTLTISGVQAEDEADYYCQSADSSGTYVVFGGGTQLTVL
notes: Expressed in E. coli from pCANTAB5E and purified on anti-E tag antibody; By gel filtration 90% monomer, 10% dimer

From US20060292145A1 (JAPAN SCIENCE AND TECHNOLOGY, published 2006)
